Patent US20210292396A1

Assays:
Assay in all cases: cell-based or functional assay
[1] = target: HIV Env of isolate BR07.DG (HIV)
[2] = target: Env of HIV isolate CNE10 (clade B) (HIV)
[3] = target: HIV Env of isolate REJO.67 (HIV)
[4] = target: HIV Env of isolate 5768.04 (HIV)
[5] = target: Env of HIV isolate ZA012.29 (clade C) (HIV)
[6] = target: HIV Env of isolate CNE20 (HIV)
[7] = target: Env of HIV isolate JRFL.JB (clade B) (HIV)
[8] = target: HIV Env of isolate 0013095-2.11 (HIV)
[9] = target: HIV Env of isolate 3365.v2.c20 (HIV)
[10] = target: Env of HIV isolate CNE7 (clade BC) (HIV)
[11] = target: HIV Env of isolate 001428-2.42 (HIV)
[12] = target: Env of HIV isolate X2088.c9 (clade G) (HIV)
[13] = target: HIV Env of isolate 6095.v1.c10 (HIV)
[14] = target: HIV Env of isolate ZM55.28a (HIV)
[15] = target: Env of HIV isolate R2184.c4 (clade AE) (HIV)
[16] = target: Env of HIV isolate BJOX028000.10.3 (clade AE) (HIV)
[17] = target: Env of HIV isolate Q259.17 (clade A) (HIV)
[18] = target: Env of HIV isolate BS208.B1 (clade A) (HIV)
[19] = target: HIV Env of isolate 6471.v1.c16 (HIV)
[20] = target: Env of HIV isolate 6644.v2.c33 (clade C) (HIV)
[21] = target: HIV Env of isolate CNE19 (HIV)
[22] = target: HIV Env of isolate BJOX002000.03.2 (HIV)
[23] = target: Env of HIV isolate BX08.16 (clade B) (HIV)
[24] = target: HIV Env of isolate ZM109.4 (HIV)
[25] = target: HIV Env of isolate R1166.c1 (HIV)
[26] = target: Env of HIV isolate MI369.A5 (clade A) (HIV)
[27] = target: Env of HIV isolate DU123.06 (clade C) (HIV)
[28] = target: HIV Env of isolate CH117.4 (HIV)
[29] = target: HIV Env of isolate TV1.29 (HIV)
[30] = target: Env of HIV isolate Q461.e2 (clade AD) (HIV)
[31] = target: Env of HIV isolate 3988.25 (clade B) (HIV)
[32] = target: HIV Env of isolate UG037.8 (HIV)
[33] = target: HIV Env of isolate 25925-2.22 (HIV)
[34] = target: Env of HIV isolate T33-7 (clade AG) (HIV)
[35] = target: HIV Env of isolate 0330.v4.c3 (HIV)
[36] = target: HIV Env of isolate C4118.09 (HIV)
[37] = target: Env of HIV isolate C4118.09 (clade AE) (HIV)
[38] = target: Env of HIV isolate DU151.02 (clade C) (HIV)
[39] = target: Env of HIV isolate 3468.v1.c12 (clade AD) (HIV)
[40] = target: HIV Env of isolate CNE30 (HIV)
[41] = target: HIV Env of isolate 6322.v4.c1 (HIV)
[42] = target: Env of HIV isolate T253-11 (clade AG) (HIV)
[43] = target: Env of HIV isolate KER2008.12 (clade A) (HIV)
[44] = target: Env of HIV isolate 0013095-2.11 (clade C) (HIV)
[45] = target: Env of HIV isolate X2278.C2.B6 (clade B) (HIV)
[46] = target: HIV Env of isolate CE703010217.B6 (HIV)
[47] = target: Env of HIV isolate 89.6.DG (clade B) (HIV)
[48] = target: HIV Env of isolate 0439.v5.c1 (HIV)
[49] = target: Env of HIV isolate BJOX010000.06.2 (clade AE) (HIV)
[50] = target: HIV Env of isolate ZM233.6 (HIV)
[51] = target: Env of HIV isolate 247-23 (clade D) (HIV)
[52] = target: HIV Env of isolate 45_01dG5 (HIV)
[53] = target: Env of HIV isolate HXB2.DG (clade B) (HIV)

Substance PGT121 (antibody) has an IC80 [1] of 0.596 µg/mL, an IC50, pseudovirus neutralization [2] of 0.0193 µg/mL and an IC80 [3] greater than 50 µg/mL. For the same substance, the IC80 [4] was 0.917 µg/mL, the IC50, pseudovirus neutralization [5] was 0.0117 µg/mL and the IC80, pseudovirus neutralization [6] was 0.0127 µg/mL. The IC50, pseudovirus neutralization [7] was 0.0397 µg/mL, the IC80, pseudovirus neutralization [8] was greater than 50 µg/mL and the IC80 [9] was 0.639 µg/mL. The IC50, pseudovirus neutralization [10] was 0.0477 µg/mL, the IC80, pseudovirus neutralization [11] was 0.108 µg/mL and the IC50, pseudovirus neutralization [12] was 0.00633 µg/mL. For the same substance, the IC80 [13] was greater than 50 µg/mL, the IC80, pseudovirus neutralization [14] was 0.216 µg/mL and the IC50, pseudovirus neutralization [15] was greater than 50 µg/mL. The IC50, pseudovirus neutralization [16] was greater than 50 µg/mL, the IC50, pseudovirus neutralization [17] was greater than 50 µg/mL and the IC50, pseudovirus neutralization [18] was greater than 50 µg/mL. For the same substance, the IC80, pseudovirus neutralization [19] was greater than 50 µg/mL, the IC50, pseudovirus neutralization [20] was 0.037 µg/mL and the IC80, pseudovirus neutralization [21] was 0.041 µg/mL. The IC80 [22] was 0.068 µg/mL, the IC50, pseudovirus neutralization [23] was 0.00933 µg/mL and the IC80, pseudovirus neutralization [24] was greater than 50 µg/mL. The IC80 [25] was greater than 50 µg/mL, the IC50, pseudovirus neutralization [26] was 0.0507 µg/mL and the IC50, pseudovirus neutralization [27] was 0.0477 µg/mL. It also gave an IC80, pseudovirus neutralization [28] greater than 50 µg/mL, an IC80, pseudovirus neutralization [29] of 0.438 µg/mL and an IC50, pseudovirus neutralization [30] greater than 50 µg/mL. The IC50, pseudovirus neutralization [31] was 0.0127 µg/mL, the IC80 [32] was 0.307 µg/mL and the IC80, pseudovirus neutralization [33] was 0.0867 µg/mL. The IC50, pseudovirus neutralization [34] was greater than 50 µg/mL, the IC80 [35] was 0.211 µg/mL and the IC80 [36] was greater than 50 µg/mL. The IC50, pseudovirus neutralization [37] was greater than 50 µg/mL, the IC50, pseudovirus neutralization [38] was 0.0117 µg/mL and the IC50, pseudovirus neutralization [39] was 0.0763 µg/mL. For the same substance, the IC80, pseudovirus neutralization [40] was 0.296 µg/mL, the IC80, pseudovirus neutralization [41] was greater than 50 µg/mL and the IC50, pseudovirus neutralization [42] was greater than 50 µg/mL. The IC50, pseudovirus neutralization [43] was 0.553 µg/mL, the IC50, pseudovirus neutralization [44] was greater than 50 µg/mL and the IC50, pseudovirus neutralization [45] was 0.026 µg/mL. For the same substance, the IC80, pseudovirus neutralization [46] was 0.0173 µg/mL, the IC50, pseudovirus neutralization [47] was 0.0337 µg/mL and the IC80 [48] was greater than 50 µg/mL. The IC50, pseudovirus neutralization [49] was greater than 50 µg/mL, the IC80, pseudovirus neutralization [50] was 3.6 µg/mL and the IC50, pseudovirus neutralization [51] was greater than 50 µg/mL. The IC80 [52] was 0.0257 µg/mL and the IC50, pseudovirus neutralization [53] was greater than 50 µg/mL.
